Test results as given in paper PMC6689050, “A switch element in the autophagy E2 Atg3 mediates allosteric regulation across the lipidation cascade” (Nature Communications, 2019).
Numbering of substitutions follows the chain as printed. In names and notes the source's numbering stands. Each block holds one binder with its values, some of them ahead of it.

Columns and labels:
[1] = target: T1, Atg12–Atg5 conjugate (His-Atg12 100–186 conjugated to Atg5 1–284), minimal yeast autophagy E3 (S. cerevisiae, UniProt P38316 100-186; Q12380 1-284, conjugated to Atg5 (Atg12–Atg5 conjugate) | conjugated to Atg12 (Atg12–Atg5 conjugate)); test: SEC; purified His-Atg12–Atg5 combined with Atg16 1–46 in a 1:2 molar ratio, Superdex-200; peak fractions of the complex harvested; conditions: both partners purified
T1 construct: Atg12, S. cerevisiae, residues 100–186; Atg5, S. cerevisiae, residues 1–284, untagged; Covalent conjugate formed in E. coli by co-expressed Atg7 and Atg10; No removal of the His tag is told; also called His-Atg12–Atg5; minimal yeast E3; source: E. coli BL21, co-expressed with Atg7 1–630 and Atg10; purified (Ni-NTA, cation exchange); not shown: His6, N-terminal, kept
T1 sequence (looked up) 1: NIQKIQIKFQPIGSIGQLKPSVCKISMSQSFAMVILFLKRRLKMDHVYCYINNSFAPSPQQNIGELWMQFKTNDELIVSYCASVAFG
T1 sequence (looked up) 2: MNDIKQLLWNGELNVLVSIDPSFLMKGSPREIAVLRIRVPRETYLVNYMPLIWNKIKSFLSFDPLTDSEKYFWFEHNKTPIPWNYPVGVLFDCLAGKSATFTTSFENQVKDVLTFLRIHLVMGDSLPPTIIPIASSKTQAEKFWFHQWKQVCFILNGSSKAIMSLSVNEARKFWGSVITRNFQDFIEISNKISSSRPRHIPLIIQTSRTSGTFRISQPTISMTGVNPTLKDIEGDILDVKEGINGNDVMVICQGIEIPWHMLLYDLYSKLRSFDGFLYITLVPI

[2] = target: T2, Atg3^FR (residues 86–159), the intrinsically disordered flexible region of yeast Atg3 (S. cerevisiae, UniProt P40344 86-159); test: NMR; average over E123IR residues; Atg12–Atg5 with Atg16
T2 chain: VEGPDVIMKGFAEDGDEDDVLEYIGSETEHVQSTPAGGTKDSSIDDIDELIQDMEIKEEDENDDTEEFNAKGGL

[3] = target: T3, Atg3^∆FR (yeast Atg3 lacking the flexible region) (S. cerevisiae, UniProt P40344 1-310, ∆FR (FR, residues 85–159)); test: NMR
T3 sequence: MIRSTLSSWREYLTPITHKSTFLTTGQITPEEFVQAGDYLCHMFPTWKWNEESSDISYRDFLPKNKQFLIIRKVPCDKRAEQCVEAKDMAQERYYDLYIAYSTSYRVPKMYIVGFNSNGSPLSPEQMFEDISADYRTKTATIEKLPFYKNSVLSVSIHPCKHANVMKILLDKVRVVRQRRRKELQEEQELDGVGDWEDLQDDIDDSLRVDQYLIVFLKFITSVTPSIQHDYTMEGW

[4] = target: T3, Atg3^∆FR (yeast Atg3 lacking the …); test: NMR; average over E123IR residues
[5] = target: T1, Atg12–Atg5 conjugate (His-Atg12 100–186 …); test: NMR titration; 0.1 mM 15N-labeled Atg3^FR 86–159 titrated with 0–150 µM unlabeled Atg12–Atg5; [15N,1H] TROSY; 25 °C, 20 mM MES pH 6.5, 100 mM NaCl, 10% D2O; conditions: both partners purified

binding result [1]: binds
B1: Atg16 (residues 1–46) (domain or fragment, S. cerevisiae, UniProt Q03818 1-46, looked up)
chain: MGNFIITERKKAKEERSNPQTDSMDDLLIRRLTDRNDKEAHLNELF
notes: Atg16, S. cerevisiae, residues 1–46; also called Atg16 1–46; source: purified

Kd [2]: 69 µM
B2: Atg12–Atg5 conjugate (His-Atg12 100–186 conjugated to Atg5 1–284), minimal yeast autophagy E3 (complex)
chain 1: T1 sequence (looked up) 1
chain 2: T1 sequence (looked up) 2
modifications: conjugated to Atg5 (Atg12–Atg5 conjugate) | conjugated to Atg12 (Atg12–Atg5 conjugate)

Kd [3]: 994 µM
B3: Atg3^FR 86–159 mutant I132D, L135D, I136D (printed elsewhere as I136R) (domain or fragment)
chain: T2 chain with I47D, L50D, I51D

Kd [4]: 238 µM
binding result [5]: binds
B4: Atg3^FR (residues 86–159), the intrinsically disordered flexible region of yeast Atg3 (domain or fragment, S. cerevisiae, UniProt P40344 86-159, looked up)
chain: T2 chain
notes: Atg3 (autophagy E2), S. cerevisiae, flexible region, residues 86–159; 15N-labelled (or 13C,15N-labelled) for NMR; The introduction gives the FR as residues 85–159, the construct is 86–159; also called Atg3^FR 86–159; holds the Atg3^E123IR element; source: purified
